Experimental data published in PMC6400186, “Structure of mammalian plasma fetuin-B and its mechanism of selective metallopeptidase inhibition” (IUCrJ, 2019).

How the values were obtained:
Test in all cases: enzyme inhibition assay (fluorogenic substrate), Ki by Morrison's equation; fetuin-B variant titrated against enzyme; 37°C, 150 mM sodium chloride, 50 mM Tris-HCl pH 7.4, 0.01% Brij 35, triplicate; enzyme and substrate 1.0 nM and 195 µM for astacin, 0.5 nM and 26 µM for meprin β, 0.7 nM and 26 µM for ovastacin
Settings in all cases: both partners purified
[1] = biological target: T1, human meprin β (human, UniProt Q16820 62-652)
T1 sequence (looked up): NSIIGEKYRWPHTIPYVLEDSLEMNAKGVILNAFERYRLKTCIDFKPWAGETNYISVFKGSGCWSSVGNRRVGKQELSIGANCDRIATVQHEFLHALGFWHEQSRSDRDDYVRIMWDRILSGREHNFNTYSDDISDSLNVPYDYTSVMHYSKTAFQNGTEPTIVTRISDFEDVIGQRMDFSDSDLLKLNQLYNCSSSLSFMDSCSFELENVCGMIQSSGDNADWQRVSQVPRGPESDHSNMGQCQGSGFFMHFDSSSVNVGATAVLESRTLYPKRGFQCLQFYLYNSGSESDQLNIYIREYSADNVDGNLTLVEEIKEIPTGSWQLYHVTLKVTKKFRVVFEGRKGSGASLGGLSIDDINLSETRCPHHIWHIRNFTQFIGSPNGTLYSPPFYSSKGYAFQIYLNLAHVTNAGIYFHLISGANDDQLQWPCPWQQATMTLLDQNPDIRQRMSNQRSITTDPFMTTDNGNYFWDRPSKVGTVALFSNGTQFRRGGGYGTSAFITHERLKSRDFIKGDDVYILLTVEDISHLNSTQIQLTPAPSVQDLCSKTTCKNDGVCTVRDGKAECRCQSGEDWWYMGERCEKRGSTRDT

[2] = biological target: T2, mouse ovastacin (mouse, UniProt Q6HA09 85-435)
T2 sequence (looked up): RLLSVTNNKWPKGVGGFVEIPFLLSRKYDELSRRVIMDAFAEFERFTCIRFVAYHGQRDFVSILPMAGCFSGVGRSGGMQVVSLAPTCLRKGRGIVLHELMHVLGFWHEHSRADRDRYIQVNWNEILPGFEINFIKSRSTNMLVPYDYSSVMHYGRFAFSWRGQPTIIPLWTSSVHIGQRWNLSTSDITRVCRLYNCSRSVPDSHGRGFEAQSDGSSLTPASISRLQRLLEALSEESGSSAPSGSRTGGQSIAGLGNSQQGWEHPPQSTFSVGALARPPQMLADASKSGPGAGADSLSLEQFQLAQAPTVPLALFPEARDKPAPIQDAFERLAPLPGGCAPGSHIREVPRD

[3] = biological target: T3, crayfish astacin (European freshwater crayfish Astacus …, UniProt P07584 50-251)
T3 construct: astacin, Astacus astacus, UniProt P07584; Carries a catalytic zinc ion; also called archetypal astacin; source: purified from the digestive fluid of the European freshwater crayfish Astacus astacus L
T3 sequence (P07584 50-251): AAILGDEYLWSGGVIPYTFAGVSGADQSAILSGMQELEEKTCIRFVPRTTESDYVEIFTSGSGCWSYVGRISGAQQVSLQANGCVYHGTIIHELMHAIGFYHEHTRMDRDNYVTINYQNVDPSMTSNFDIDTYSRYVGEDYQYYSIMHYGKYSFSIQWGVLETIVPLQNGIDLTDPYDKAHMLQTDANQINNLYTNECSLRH

B1: mouse fetuin-B (natural protein, UniProt Q9QXC1 19-388, looked up)
chain: RSPPAPPLPQRPLSPLHPLGCNDSEVLAVAGFALQNINRDQKDGYMLSLNRVHDVREHYQEDMGSLFYLTLDVLETDCHVLSRKAQKDCKPRMFYESVYGQCKAMFHINKPRRVLYLPAYNCTLRPVSKRKTHTTCPDCPSPIDLSNPSALEAATESLAKFNSKSPSKKYELVKVTKAMNQWVSGPAYYVEYLIKEAPCTKSQASCSLQHSDSEPVGICQGSTVQSSLRHVPLIQPVEKSVTVTCEFFESQAQVPGDENPAVTQGPQKLPQKNTAPTSSPSVTAPRGSIQHLPELDDEKPEESKGGSPEEAFPVQLDLTTNPQGDTLDVSFLYLEPGDKKLVVLPFPGKEQRSAECPGPEKENNPLVLPP
modifications: N-glycans at N40 and N139
notes: mouse fetuin-B, UniProt Q9QXC1; residues R29-P388 (molecule B) and Q28-P388 (molecule D) are modelled in the complex; also called mFB; murine fetuin-B; source: baculovirus-transduced High Five cells, purified (Ni-NTA); not shown: His6, C-terminal, kept
B1 was tested, and the Ki [1] was 81 pM, the Ki [2] was 46 pM and the Ki [3] was 100 pM.

B2: mouse fetuin-B D156A (natural protein, UniProt Q9QXC1 19-388, looked up)
chain: RSPPAPPLPQRPLSPLHPLGCNDSEVLAVAGFALQNINRDQKDGYMLSLNRVHDVREHYQEDMGSLFYLTLDVLETDCHVLSRKAQKDCKPRMFYESVYGQCKAMFHINKPRRVLYLPAYNCTLRPVSKRKTHTTCPACPSPIDLSNPSALEAATESLAKFNSKSPSKKYELVKVTKAMNQWVSGPAYYVEYLIKEAPCTKSQASCSLQHSDSEPVGICQGSTVQSSLRHVPLIQPVEKSVTVTCEFFESQAQVPGDENPAVTQGPQKLPQKNTAPTSSPSVTAPRGSIQHLPELDDEKPEESKGGSPEEAFPVQLDLTTNPQGDTLDVSFLYLEPGDKKLVVLPFPGKEQRSAECPGPEKENNPLVLPP
notes: also called mFB_(D156A); source: ExpiCHO-S cells, purified (Ni-NTA)
With B2 the “loss of inhibitory potency (change of Ki) against wild-type mouse fetuin-B” value [1] was ~2 orders of magnitude, the “loss of inhibitory potency (change of Ki) against wild-type mouse fetuin-B” value [2] was ~4 orders of magnitude and the “loss of inhibitory potency (change of Ki) against wild-type mouse fetuin-B” value [3] was ~2 orders of magnitude.

B3: mouse fetuin-B P155A+D156A (natural protein, UniProt Q9QXC1 19-388, looked up)
chain: RSPPAPPLPQRPLSPLHPLGCNDSEVLAVAGFALQNINRDQKDGYMLSLNRVHDVREHYQEDMGSLFYLTLDVLETDCHVLSRKAQKDCKPRMFYESVYGQCKAMFHINKPRRVLYLPAYNCTLRPVSKRKTHTTCAACPSPIDLSNPSALEAATESLAKFNSKSPSKKYELVKVTKAMNQWVSGPAYYVEYLIKEAPCTKSQASCSLQHSDSEPVGICQGSTVQSSLRHVPLIQPVEKSVTVTCEFFESQAQVPGDENPAVTQGPQKLPQKNTAPTSSPSVTAPRGSIQHLPELDDEKPEESKGGSPEEAFPVQLDLTTNPQGDTLDVSFLYLEPGDKKLVVLPFPGKEQRSAECPGPEKENNPLVLPP
notes: also called mFB_(P155A,D156A); double mutant; source: ExpiCHO-S cells, purified (Ni-NTA)
For B3, the “loss of inhibitory potency (change of Ki) against wild-type mouse fetuin-B” value [1] was 4 orders of magnitude, the “loss of inhibitory potency (change of Ki) against wild-type mouse fetuin-B” value [2] was 4 orders of magnitude and the “loss of inhibitory potency (change of Ki) against wild-type mouse fetuin-B” value [3] was 2 orders of magnitude.

B4: mouse fetuin-B P155A (natural protein, UniProt Q9QXC1 19-388, looked up)
chain: RSPPAPPLPQRPLSPLHPLGCNDSEVLAVAGFALQNINRDQKDGYMLSLNRVHDVREHYQEDMGSLFYLTLDVLETDCHVLSRKAQKDCKPRMFYESVYGQCKAMFHINKPRRVLYLPAYNCTLRPVSKRKTHTTCADCPSPIDLSNPSALEAATESLAKFNSKSPSKKYELVKVTKAMNQWVSGPAYYVEYLIKEAPCTKSQASCSLQHSDSEPVGICQGSTVQSSLRHVPLIQPVEKSVTVTCEFFESQAQVPGDENPAVTQGPQKLPQKNTAPTSSPSVTAPRGSIQHLPELDDEKPEESKGGSPEEAFPVQLDLTTNPQGDTLDVSFLYLEPGDKKLVVLPFPGKEQRSAECPGPEKENNPLVLPP
notes: also called mFB_(P155A); source: ExpiCHO-S cells, purified (Ni-NTA)
For B4, the “loss of inhibitory potency (change of Ki) against wild-type mouse fetuin-B” value [1] was ~1 orders of magnitude, the “loss of inhibitory potency (change of Ki) against wild-type mouse fetuin-B” value [2] was ~2 orders of magnitude and the “loss of inhibitory potency (change of Ki) against wild-type mouse fetuin-B” value [3] was ~1 orders of magnitude.

B5: chimeric mutant mFBABA (other, mouse, UniProt P29699 19-136, looked up)
chain: APQGTGLGFRELACDDPEAEQVALLAVDYLNNHLLQGFKQVLNQIDKVKVWSRRPFGVVYEMEVDTLETTCHALDPTPLANCSVRQLTEHAVEGDCDFHILKQDGQFRVMHTQCHSTPVSKRKTHTTCPDCPSPIDLSNPSALEAATESLAKFNSKSPSKKYELVKVTKAMNQWVSGPAYYVEYLIKEAPCTKSQASCSLQHSDSEPVGICQGSTVQSSLRHVPLIQPVEKSVTVTCEFFESQPQPANANAVGPVPTANAALPADPPASVVVGPVVVPRGLSDHRTYHDLRHAFSPVASVESASGETLHSPKVGQPGAAGPVSPMCPGRIRHFKI
notes: mouse fetuin-A CY1 domain, UniProt P29699, residues A19-P136; mouse fetuin-B CY2 domain with linker, UniProt Q9QXC1, residues V145-Q269; mouse fetuin-A CTR domain, UniProt P29699, residues P254-I345; also called chimera of mouse fetuin-B with CY1 and CTR from mouse fetuin-A; source: adenovirus-infected COS-7 cells, purified (Ni-NTA)
For B5, the “loss of inhibitory potency (change of Ki) against wild-type mouse fetuin-B” value [1] was > 4 orders of magnitude, the “loss of inhibitory potency (change of Ki) against wild-type mouse fetuin-B” value [2] was > 4 orders of magnitude and the “loss of inhibitory potency (change of Ki) against wild-type mouse fetuin-B” value [3] was > 3 orders of magnitude.
